Data on one substance can be found in article PMC10950269.

This assay deals with Recombinant truncated NA protein from the A/Perth/16/2009 H3N2 strain of influenza virus (influenza A virus A/Perth/16/2009 (H3N2)). Description: SEC. For orientation: In gel filtration, larger molecules generally elute earlier.

As to “Recombinant truncated NA protein from the A/Perth/16/2009 H3N2 strain of influenza virus (enzyme)”, the stoichiometry N is 4.

One may read the stoichiometry N as the number of molecules, sites or subunits per partner or assembly.
